Response data for nine variants are collected here from paper PMC4920195, “Non-Smc element 5 (Nse5) of the Smc5/6 complex interacts with SUMO pathway components” (Biology Open, 2016).

The chains are these.
B1: Nse5-LexA (wild type) [S. cerevisiae] / Smt3-AD [S. cerevisiae] (parent complex)
chain 1: MDGALINSVLYVSPRNGAHYFVELTEKHLLAFEMLNSMCLLENYDHVLLFLECQFGKSHNLAVIPFDIILVLFTLSTLSEYYKEPILRANDPYNTSRETLSRRALKLLQKYLAILKEFDSEQYNLYDLELLRCQFFLAIDTLTPKKQKWGFDRFRRTKSESGVTYRQNASVDPELDQAKTFKNPYRSYISCLEQRNTILGNRLLNLKLNEPGEFINMILWTLSNSLQESTPLFLSSHEIWMPLLEILIDLFSCRQDYFIQHEVAQNVSKSLFVQRLSESPLAVFFESLNTRNFANRFSEYVFLNCDYKLPSDNYATPVHPVYNGENTIVDTYIPTIKCSPLYKSQKSLALRRKLIGSCFKLLLRVPDGHRLITPRIVADDVIQGISRTLASFNDILQFKKFFMTENLSQESYFIPLLAEGTLSEILKDTQECVVILTLVENLSDGVSFCNEVIGLVKSKCFAFTEQCSQASYEEAVLNIEKCDVCLLVLLRYLLHLIGTEAILDAKEQLEMLHAIEKNDSGRRQWAKALNLGNDPPLLYPIVSQMFGVHDKSVIIE
chain 2: MSDSEVNQEAKPEVKPEVKPETHINLKVSDGSSEIFFKIKKTTPLRRLMEAFAKRQGKEMDSLRFLYDGIRIQADQTPEDLDMEDNDIIEAHREQIGGATY
B2: Nse5-LexA (wild type) [S. cerevisiae] / Nse6-AD [S. cerevisiae] (parent complex)
chain 1: B1 chain 1
chain 2: MGSVNSSPNEEFETVPDSQISGFDSPLIPTSVGSYFRDDDDDEKVHPNFISDPENDSLNSDEEFSSLENSDLNLSGAKAESGDDFDPILKRTIISKRKAPSNNEDEEIVKTPRKLVNYVPLKIFNLGDSFDDTITTTVAKLQDLKKEILDSPRSNKSIVITSNTVAKSELQKSIKFSGSIPEIYLDVVTKETISDKYKDWHFISKNCHYEQLMDLEMKDTAYSFLFGSSRSQGKVPEFVHLKCPSITNLLVLFGVNQEKCNSLKINYEKKENSRYDNLCTIFPVNKMLKFLMYFYSDDDNDDVREFFLKAFICLILDRKVFNAMESDHRLCFKVLELFNEAHFINSYFEIVDKNDFFLHYRLLQIFPHLQSALLRRRFSEKQGRTETIQQNIIKEFNEFFDCKNYKNLLYFILTMYGSKFIPFGPKCQVTEYFKDCILDISNETTNDVEISILKGILNLFSKIR

Variants of B1 are the subject of one assay. As to the kind of experiment: yeast two-hybrid (β-galactosidase); gal (induced) bar; vector bait control 7.3; parent: 1.95e+03.
Take chain 1 MDGALINSVLYVSPRNGAHYFVELTEKHLLAFEMLNSMCLLENYDHVLLFLECQFGKSHNLAVIPFDIIAVLFTLSTLSEYYKEPILRANDPYNTSRETLSRRALKLLQKYLAILKEFDSEQYNLYDLELLRCQFFLAIDTLTPKKQKWGFDRFRRTKSESGVTYRQNASVDPELDQAKTFKNPYRSYISCLEQRNTILGNRLLNLKLNEPGEFINMILWTLSNSLQESTPLFLSSHEIWMPLLEILIDLFSCRQDYFIQHEVAQNVSKSLFVQRLSESPLAVFFESLNTRNFANRFSEYVFLNCDYKLPSDNYATPVHPVYNGENTIVDTYIPTIKCSPLYKSQKSLALRRKLIGSCFKLLLRVPDGHRLITPRIVADDVIQGISRTLASFNDILQFKKFFMTENLSQESYFIPLLAEGTLSEILKDTQECVVILTLVENLSDGVSFCNEVIGLVKSKCFAFTEQCSQASYEEAVLNIEKCDVCLLVLLRYLLHLIGTEAILDAKEQLEMLHAIEKNDSGRRQWAKALNLGNDPPLLYPIVSQMFGVHDKSVIIE [chain 1 L70A]: the response is 7.8 β-galactosidase activity units. In the case of chain 1 MDGALINSVLYVSPRNGAHYFVELTEKHLLAFEMLNSMCLLENYDHVLLFLECQFGKSHNLAVIPFDIIAVLFTLSTLSEYYKEPILRANDPYNTSRETLSRRALKLLQKYLAILKEFDSEQYNLYDLELLRCQFFLAIDTLTPKKQKWGFDRFRRTKSESGVTYRQNASVDPELDQAKTFKNPYRSYISCLEQRNTILGNRLLNLKLNEPGEFINMILWTLSNSLQESTPLFLSSHEIWMPLLEIAIDLFSCRQDYFIQHEVAQNVSKSLFVQRLSESPLAVFFESLNTRNFANRFSEYVFLNCDYKLPSDNYATPVHPVYNGENTIVDTYIPTIKCSPLYKSQKSLALRRKLIGSCFKLLLRVPDGHRLITPRIVADDVIQGISRTLASFNDILQFKKFFMTENLSQESYFIPLLAEGTLSEILKDTQECVVILTLVENLSDGVSFCNEVIGLVKSKCFAFTEQCSQASYEEAVLNIEKCDVCLLVLLRYLLHLIGTEAILDAKEQLEMLHAIEKNDSGRRQWAKALNLGNDPPLLYPIVSQMFGVHDKSVIIE [chain 1 L70A, chain 1 L247A], the response is 6.6 β-galactosidase activity units. Take chain 1 MDGALINSVLYVSPRNGAHYFVELTEKHLLAFEMLNSMCLLENYDHVLLFLECQFGKSHNLAVIPFDIILVLFTLSTLSEYYKEPILRANDPYNTSRETLSRRALKLLQKYLAILKEFDSEQYNLYDLELLRCQFFLAIDTLTPKKQKWGFDRFRRTKSESGVTYRQNASVDPELDQAKTFKNPYRSYISCLEQRNTILGNRLLNLKLNEPGEFINMILWTLSNSLQESTPLFLSSHEIWMPLLEIAIDLFSCRQDYFIQHEVAQNVSKSLFVQRLSESPLAVFFESLNTRNFANRFSEYVFLNCDYKLPSDNYATPVHPVYNGENTIVDTYIPTIKCSPLYKSQKSLALRRKLIGSCFKLLLRVPDGHRLITPRIVADDVIQGISRTLASFNDILQFKKFFMTENLSQESYFIPLLAEGTLSEILKDTQECVVILTLVENLSDGVSFCNEVIGLVKSKCFAFTEQCSQASYEEAVLNIEKCDVCLLVLLRYLLHLIGTEAILDAKEQLEMLHAIEKNDSGRRQWAKALNLGNDPPLLYPIVSQMFGVHDKSVIIE [chain 1 L247A]: the response is 7.4 β-galactosidase activity units.

In another assay the parent is B2. As to the kind of experiment: yeast two-hybrid (β-galactosidase); gal (induced) bar; parent: 2.45e+03.
Regarding chain 1 MDGALINSVLYVSPRNGAHYFVELTEKHLLAFEMLNSMCLLENYDHVLLFLECQFGKSHNLAVIPFDIILVLFTLSTLSEYYKEPILRANDPYNTSRETLSRRALKLLQKHLAILKEFDSEQYNLYDLELLRCQFFLAIDTLTPKKQKWGFDRFRRTKSESGVTYRQNASVDPELDQAKTFKNPYRSYISCLEQRNTILGNRLLNLKLNEPGEFINMILWTLSNSLQESTPLFLSSHEIWMPLLEILIDLFSCRQDYFIQHEVAQNVSKSLFVQRLSESPLAVFFESLNTRNFANRFSEYVFLNCDYKLPSDNYATPVHPVYNGENTIVDTYIPTIKCSPLYKSQKSLALRRKLIGSCFKLLLRVPDGHRLITPRIVADDVIQGISRTLASFNDILQFKKFFMTENLSQESYFIPLLAEGTLSEILKDTQECVVILTLVENLSDGVSFCNEVIGLVKSKCFAFTEQCSQASYEEAVLNIEKCDVCLLVLLRYLLHLIGTEAILDAKEQLEMLHAIEKNDSGRRQWAKALNLGNDPPLLYPIVSQMFGVHDKSVIIE [chain 1 Y111H], the response is 2170 β-galactosidase activity units. On the same count and under the same terms, the figure for chain 1 MDGALINSVLYVSPRNGAHYFVELTEKHLLAFEMLNSMCLLENYDHVLLFLECQFGKSHNLAVIPFDIILVLFTLSTLSEYYKEPILRANDPYNTSRETLSRRALKLLQKYLAILKEFDSEQYNLYDLELLRCQFFLAIDTLTPKKQKWGFDRFRRTKSESGVTYRQNASVDPELDQAKTFKDPYRSYISCLEQRNTILGNRLLNLKLNEPGEFINMILWTLSNSLQESTPLFLSSHEIWMPLLEILIDLFSCRQDYFIQHEVAQNVSKSLFVQRLSESPLAVFFESLNTRNFANRFSEYVFLNCDYKLPSDNYATPVHPVYNGENTIVDTYIPTIKCSPLYKSQKSLALRRKLIGSCFKLLLRVPDGHRLITPRIVADDVIQGISRTLASFNDILQFKKFFMTENLSQESYFIPLLAEGTLSEILKDTQECVVILTLVENLSDGVSFCNEVIGLVKSKCFAFTEQCSQASYEEAVLNIEKCDVCLLVLLRYLLHLIGTEAILDAKEQLEMLHAIEKNDSGRRQWAKALNLGNDPPLLYPIVSQMFGVHDKSVIIE [chain 1 N183D] is 2140 β-galactosidase activity units; for chain 1 MDGALINSVLYVSPRNGAHYFVELTEKHLLAFEMLNSMCLLENYDHVLLFLECQFGKSHNLAVIPFDIILVLFTLSTLSEYYKEPILRANDPYNTSRETLSRRALKLLQKYLAILKEFDSEQYNLYDLELLRCQFFLAIDTLTPKKQKWGFDRFRRTKSESGVTYRQNASVDPELDQAKTFKNPYRSYISCLEQRNTILGNRLLNLKLNEPGEFINMILWTLSNSLQESTPLFLSSHEIWMPLLEILIDLFSCRQDYFIQHEVAQNVSKSLFVQRLSESPLAVFFESLNTRNFANRFSEYVFLNCDYKLPSDNYATPVYPVYNGENTIVDTYIPTIKCSPLYKSQKSLALRRKLIGSCFKLLLRVPDGHRLITPRIVADDVIQGISRTLASFNDILQFKKFFMTENLSQESYFIPLLAEGTLSEILKDTQECVVILTLVENLSDGVSFCNEVIGLVKSKCFAFTEQCSQASYEEAVLNIEKCDVCLLVLLRYLLHLIGTEAILDAKEQLEMLHAIEKNDSGRRQWAKALNLGNDPPLLYPIVSQMFGVHDKSVIIE [chain 1 H319Y] it is 2070 β-galactosidase activity units. With chain 1 MDGALINSVLYVSPRNGAHYFVELTEKHLLAFEMLNSMCLLENYDHVLLFLECQFGKSHNLAVIPFDIILVLFTLSTLSEYYKEPILRANDPYNTSRETLSRRALKLLQKYLAILKEFDSEQHNLYDLELLRCQFFLAIDTLTPKKQKWGFDRFRRTKSESGVTYRQNASVDPELDQAKTFKNPYRSYISCLEQRNTILGNRLLNLKLNEPGEFINMILWTLSNSLQESTPLFLSSHEIWMPLLEILIDLFSCRQDYFIQHEVAQNVSKSLFVQRLSESPLAVFFESLNTRNFANRFSEYVFLNCDYKLPSDNYATPVHPVYNGENTIVDTYIPTIKCSPLYKSQKSLALRRKLIGSCFKLLLRVPDGHRLITPRIVADDVIQGISRTLASFNDILQFKKFFMTENLSQESYFIPLLAEGTLSEILKDTQECVVILTLVENLSDGVSFCNEVIGLVKSKCFAFTEQCSQASYEEAVLNIEKCDVCLLVLLRYLLHLIGTEAILDAKEQLEMLHAIEKNDSGRRQWAKALNLGNDPPLLYPIVSQMFGVHDKSVIIE [chain 1 Y123H], the response was 2190 β-galactosidase activity units.

Variants of B2 are the subject of another assay. As to the kind of experiment: yeast two-hybrid (β-galactosidase); gal (induced) bar; vector bait control 2.8; parent: 2.45e+03.
For the variant chain 1 MDGALINSVLYVSPRNGAHYFVELTEKHLLAFEMLNSMCLLENYDHVLLFLECQFGKSHNLAVIPFDIILVLFTLSTLSEYYKEPILRANDPYNTSRETLSRRALKLLQKYLAILKEFDSEQYNLYDLELLRCQFFLAIDTLTPKKQKWGFDRFRRTKSESGVTYRQNASVDPELDQAKTFKNPYRSYISCLEQRNTILGNRLLNLKLNEPGEFINMILWTLSNSLQESTPLFLSSHEIWMPLLEIAIDLFSCRQDYFIQHEVAQNVSKSLFVQRLSESPLAVFFESLNTRNFANRFSEYVFLNCDYKLPSDNYATPVHPVYNGENTIVDTYIPTIKCSPLYKSQKSLALRRKLIGSCFKLLLRVPDGHRLITPRIVADDVIQGISRTLASFNDILQFKKFFMTENLSQESYFIPLLAEGTLSEILKDTQECVVILTLVENLSDGVSFCNEVIGLVKSKCFAFTEQCSQASYEEAVLNIEKCDVCLLVLLRYLLHLIGTEAILDAKEQLEMLHAIEKNDSGRRQWAKALNLGNDPPLLYPIVSQMFGVHDKSVIIE [chain 1 L247A], the response is 2570 β-galactosidase activity units. Same read-out and setting: the figure for chain 1 MDGALINSVLYVSPRNGAHYFVELTEKHLLAFEMLNSMCLLENYDHVLLFLECQFGKSHNLAVIPFDIIAVLFTLSTLSEYYKEPILRANDPYNTSRETLSRRALKLLQKYLAILKEFDSEQYNLYDLELLRCQFFLAIDTLTPKKQKWGFDRFRRTKSESGVTYRQNASVDPELDQAKTFKNPYRSYISCLEQRNTILGNRLLNLKLNEPGEFINMILWTLSNSLQESTPLFLSSHEIWMPLLEILIDLFSCRQDYFIQHEVAQNVSKSLFVQRLSESPLAVFFESLNTRNFANRFSEYVFLNCDYKLPSDNYATPVHPVYNGENTIVDTYIPTIKCSPLYKSQKSLALRRKLIGSCFKLLLRVPDGHRLITPRIVADDVIQGISRTLASFNDILQFKKFFMTENLSQESYFIPLLAEGTLSEILKDTQECVVILTLVENLSDGVSFCNEVIGLVKSKCFAFTEQCSQASYEEAVLNIEKCDVCLLVLLRYLLHLIGTEAILDAKEQLEMLHAIEKNDSGRRQWAKALNLGNDPPLLYPIVSQMFGVHDKSVIIE [chain 1 L70A] is 2130 β-galactosidase activity units.
